From patent US10907134B2, “Mutated genes for the catalytic protein of oplophorus luciferase and use thereof” (JNC CORPORATION, priority 2013, dated 2021)

Key:
[1] = Luminescence activity of KAZ mutants (pCold II, E. coli) in supernatant and precipitate of crude enzyme solution; type: biochemical; settings: pCold II, E. coli BL21, 60 seconds; for Relative Luminescence Activity (Imax) Precipitate: 5 μL precipitate; for Relative Luminescence Activity (Imax) Supernatant: 5 μL supernatant
[2] = Luminescence activity of ZZ-fused KAZ mutants in crude enzyme solutions; type: biochemical; settings: ZZ-fused (pCold-ZZ-P-), 1 mM DTT
How it was run: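 E. coli BL21 crude extracts held with 1 mM DTT (final) on ice over 5 hours. Reaction started with 1 μL extract in 100 μL TE containing 1 μg coelenterazine; luminescence read for 60 seconds, maximum intensity (Imax) reported as relative activity.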

B1: KAZ: wild 19 kDa catalytic protein of Oplophorus luciferase (19kOLase), amino acid sequence SEQ ID NO: 2 (protein, listed as Oplophorus gracilirostris)
chain: FTLADFVGDWQQTAGYNQDQVLEQGGLSSLFQALGVSVTPIQKVVLSGENGLKADIHVIIPYEGLSGFQMGLIEMIFKVVYPVDDHHFKIILHYGTLVIDGVTPNMIDYFGRPYPGIAVFDGKQITVTGTLWNGNKIYDERLINPDGSLLFRVTINGVTGWRLCENILA
[1]; Table 3, 0.5 μg coelenterazine
  Relative Luminescence Activity (Imax) Precipitate: 0.1
  Relative Luminescence Activity (Imax) Supernatant: 1.0
[1]; Table 8, coelenterazine
  Relative Luminescence Activity (Imax) Precipitate: 0.1
  Relative Luminescence Activity (Imax) Supernatant: 1.0
[2]; Table 4, 1 μL crude enzyme solution, 1 μg coelenterazine
  Relative Luminescence Activity (Imax): 1.0
[2]; Table 9, crude enzyme solution, coelenterazine
  Relative Luminescence Activity (Imax): 1.0
